Laboratory results published in PMC4635315 (2015).

Tests used:
[1] = molecular target: BARTL1 (CCDC104/CFAP36) 1-133 (Homo sapiens, UniProt Q96G28); test: fluorescence polarization
BARTL1 (CCDC104/CFAP36) = BARTL1 (CCDC104/CFAP36) (Homo sapiens, UniProt Q96G28); test: fluorescence polarization
Chain of BARTL1 (CCDC104/CFAP36) (Q96G28 whole entry): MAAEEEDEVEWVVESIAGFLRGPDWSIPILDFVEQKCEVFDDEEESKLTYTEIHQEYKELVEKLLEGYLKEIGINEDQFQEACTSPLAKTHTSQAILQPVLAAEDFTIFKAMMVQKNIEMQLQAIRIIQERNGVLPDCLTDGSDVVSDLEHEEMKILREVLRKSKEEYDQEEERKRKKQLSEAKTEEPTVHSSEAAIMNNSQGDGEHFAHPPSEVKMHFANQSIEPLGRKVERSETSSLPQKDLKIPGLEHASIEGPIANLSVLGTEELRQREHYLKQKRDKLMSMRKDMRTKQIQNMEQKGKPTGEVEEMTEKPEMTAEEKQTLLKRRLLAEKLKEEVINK

Chain of BARTL1 (CCDC104/CFAP36) 1-133 (Q96G28 1-133): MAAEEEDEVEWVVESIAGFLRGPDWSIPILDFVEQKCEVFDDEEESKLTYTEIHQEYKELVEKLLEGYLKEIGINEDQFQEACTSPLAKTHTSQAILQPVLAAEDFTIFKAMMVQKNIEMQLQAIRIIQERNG

B1: Arl2 (protein)
chain: GLLTILKKMKQKERELRLLMLGLDNAGKTTILKKFNGEDVDTISPTLGFNIKTLEHRGFKLNIWDVGGQKSLRSYWRNYFESTDGLIWVVDSADRQRMQDCQRELQSLLVEERLAGATLLIFANKQDLPGALSCNAIQEALELDSIRSHHWRIQGCSAVTGEDLLPGIDWLLDDISSRVFTAD
modifications: mant-GppNHp-bound Arl2
[1]
  Kd: ~4.3 µM
BARTL1 (CCDC104/CFAP36)
  Kd: ~10 µM
